Laboratory results as given in paper PMC5109273.

Key:
[1] = target: TAP (Homo sapiens) (UniProt Q03518); settings: cited from earlier work
[2] = target: ICP47-TAP fusion complex with fused ICP47(∆1-11) (UniProt P03170); assay: co-IP; HEK293T co-transfected 1:1:5 (TAP1:TAP2:viral factor); solubilised in 2% digitonin; sequential precipitation via SBP tag (streptavidin agarose, biotin elution) and C8 tag (anti-C8 antibody on Dynabeads); co-precipitated mVenus-tagged viral factor quantified by SDS-PAGE and in-gel fluorescence relative to TAP lacking fused ICP47; on ice, pH 7.4

Sequence of UniProt Q03518 (Q03518 whole entry, chain 1 of 2, the tested form may be a part): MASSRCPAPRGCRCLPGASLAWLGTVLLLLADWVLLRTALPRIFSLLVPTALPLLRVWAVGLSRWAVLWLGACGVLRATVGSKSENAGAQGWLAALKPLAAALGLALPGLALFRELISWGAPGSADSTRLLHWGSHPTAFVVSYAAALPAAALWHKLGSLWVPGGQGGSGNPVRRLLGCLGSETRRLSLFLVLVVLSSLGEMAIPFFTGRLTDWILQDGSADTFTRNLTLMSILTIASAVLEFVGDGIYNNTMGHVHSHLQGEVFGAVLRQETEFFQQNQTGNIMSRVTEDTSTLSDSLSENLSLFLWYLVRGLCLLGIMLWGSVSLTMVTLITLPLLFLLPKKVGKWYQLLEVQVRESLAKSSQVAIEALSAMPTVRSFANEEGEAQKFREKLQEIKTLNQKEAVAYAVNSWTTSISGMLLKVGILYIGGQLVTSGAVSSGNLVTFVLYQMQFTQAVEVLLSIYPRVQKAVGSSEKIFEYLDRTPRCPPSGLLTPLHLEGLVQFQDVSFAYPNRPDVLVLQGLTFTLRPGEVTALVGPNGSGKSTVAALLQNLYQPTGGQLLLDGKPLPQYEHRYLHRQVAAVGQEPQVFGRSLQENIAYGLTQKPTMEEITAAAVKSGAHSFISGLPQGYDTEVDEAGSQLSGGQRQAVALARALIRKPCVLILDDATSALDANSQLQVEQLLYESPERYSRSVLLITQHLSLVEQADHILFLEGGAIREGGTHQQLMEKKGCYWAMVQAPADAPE
Sequence of UniProt Q03518 (Q03519 whole entry, chain 2 of 2, further chain, the tested form may be a part): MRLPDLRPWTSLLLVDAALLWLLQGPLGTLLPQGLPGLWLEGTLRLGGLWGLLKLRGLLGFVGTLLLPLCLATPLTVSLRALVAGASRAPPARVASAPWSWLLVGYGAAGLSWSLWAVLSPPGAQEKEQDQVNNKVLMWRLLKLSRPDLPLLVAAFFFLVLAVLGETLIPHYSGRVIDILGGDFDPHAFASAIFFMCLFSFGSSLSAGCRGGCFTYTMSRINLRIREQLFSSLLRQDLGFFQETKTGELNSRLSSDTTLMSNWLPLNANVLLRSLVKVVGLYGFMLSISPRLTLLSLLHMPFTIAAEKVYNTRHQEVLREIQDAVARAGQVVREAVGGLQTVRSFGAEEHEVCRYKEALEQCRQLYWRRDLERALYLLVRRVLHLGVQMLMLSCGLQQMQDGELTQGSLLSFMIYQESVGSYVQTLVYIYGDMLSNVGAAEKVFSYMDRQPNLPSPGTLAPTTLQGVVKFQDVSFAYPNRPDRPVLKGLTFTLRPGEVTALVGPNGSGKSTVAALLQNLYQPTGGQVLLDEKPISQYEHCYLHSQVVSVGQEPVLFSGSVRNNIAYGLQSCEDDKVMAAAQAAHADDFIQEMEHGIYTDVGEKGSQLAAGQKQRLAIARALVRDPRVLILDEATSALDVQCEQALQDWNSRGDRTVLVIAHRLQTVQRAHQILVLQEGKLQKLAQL

| Molecule | Kd [1] [nM] | co-precipitated viral factor relative to the TAP complex lacking fused ICP47 [2] [%] |
| --- | --- | --- |
| ICP47 (from UniProt P03170) | 50 |  |
| non-fused full-length ICP47(1-88) with C-terminal mVenus-myc-His10 tag (natural protein) MSWALEMADTFLDTMRVGPRTYADVRDEINKRGREDREAARTAVHDPERPLLRSPGLLPEIAPNASLGVAHRRTGGTVTDSPRNPVTR |  | 100 |
